Laboratory results reported in publication PMC5513931.

Target: T1, protease-activated receptor 2 (rat (endogenous in isolated Sprague Dawley rat arteries)) (UniProt Q63645)
T1 sequence: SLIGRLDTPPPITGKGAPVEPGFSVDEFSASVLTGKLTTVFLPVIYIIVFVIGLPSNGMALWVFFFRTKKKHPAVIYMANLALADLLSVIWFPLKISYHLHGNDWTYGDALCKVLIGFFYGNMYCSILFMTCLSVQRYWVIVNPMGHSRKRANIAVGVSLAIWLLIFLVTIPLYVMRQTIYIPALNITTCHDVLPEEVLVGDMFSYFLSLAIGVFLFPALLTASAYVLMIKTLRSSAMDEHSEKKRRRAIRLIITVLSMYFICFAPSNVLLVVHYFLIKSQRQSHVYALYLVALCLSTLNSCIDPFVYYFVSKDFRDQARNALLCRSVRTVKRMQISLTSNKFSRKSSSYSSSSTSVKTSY

EC50 of vasodilatation to SLIGRL (10 nM-10 uM), wire myography, MRA pre-constricted with 1 uM phenylephrine, control: 7.02 µM
EC50 of vasodilatation to SLIGRL (100 nM-100 uM), wire myography, basilar artery pre-constricted with 1 uM 5-HT, control: 9.65 µM
EC50 of vasodilatation to SLIGRL, wire myography, MRA from heparin-treated rats with 0.1 mM L-NNA, control: 86.4 µM
EC50 of vasodilatation to SLIGRL, wire myography, MRA from heparin-treated rats with 0.1 mM L-NNA, pre-incubated with 10 uM apixaban: 6.45 µM
EC50 of vasodilatation to SLIGRL, wire myography, MRA from heparin-treated rats, control: 1.04 µM
EC50 of vasodilatation to SLIGRL, wire myography, MRA from heparin-treated rats, pre-incubated with 10 uM apixaban: 0.71 µM
EC50 of vasodilatation to SLIGRL, wire myography, MRA pre-constricted with 1 uM phenylephrine, pre-incubated with 10 uM apixaban: 1.83 µM
EC50 of vasodilatation to SLIGRL, wire myography, MRA with 0.1 mM L-NNA, control: 3.03 µM
EC50 of vasodilatation to SLIGRL, wire myography, MRA with 0.1 mM L-NNA, pre-incubated with 10 uM apixaban: 2.27 µM
EC50 of vasodilatation to SLIGRL, wire myography, basilar artery pre-constricted with 1 uM 5-HT, pre-incubated with 10 uM apixaban: 4.41 µM
EC50 of vasodilatation to SLIGRL, wire myography, basilar artery with 0.1 mM L-NNA, control: 34.1 µM
EC50 of vasodilatation to SLIGRL, wire myography, basilar artery with 0.1 mM L-NNA, pre-incubated with 10 uM apixaban: 20.3 µM
B1: PAR-2 peptide agonist SLIGRL (peptide)
peptide: SLIGRL
